Measured values taken from PMC3740589.

Biological target: Bcl-2 (UniProt P10415)
Assay: Flag-Beclin1 IP, Bcl-2 immunoblot
Conditions: reference: Flag-Beclin1 wild type; sites T119

Beclin1 (from UniProt Q14457) Flag-Beclin1 T119A
binding against the reference: stronger
